# Assay: dynamic light scattering; self-association of NT below pH 6.4
protein,measurement,value
"NT, N-terminal fragment of major ampullate spidroin (MaSp) 1 from Euprosthenops australis (protein) GSGNSHTTPWTNPGLAENFMNSFMQGLSSMPGFTASQLDDMSTIAQSMVQSIQSLAAQGRTSPNKLQALNMAFASSMAEIAASEEGGGSLSTKTSSIASAMSNAFLQTTGVVNQPFINEITQLVSMFAQAGMNDVSA",hydrodynamic size of polymers,polymers with a hydrodynamic size of ˜700 nm below pH 6.4
